Laboratory results as given in US20110118131A1 (published 2011).

B1: XPA23 Fab, heavy chain G102Y (Fab, V domains shown)
VH: EVQLLESGGGLVQPGGSLRLSCAASGFTFSKYFMFWVRQAPGKGLEWVSVISPSGGMTRYADSVKGRFTISRDNSKNTLYLQMNSLRAEDTAVYYCARVGYYGNSDYWGQGTLVTVSS
VL: DIQMTQSPSSVSASVGDRLTIICRASQDINRWLAWYQQTPGNAPKLLIHSATSLQSGVPSRFSGSGSGTDFTLTINSLQPEDFATYYCQQADSFPLTFGGGTKVEIK
B2: XPA23 Fab, heavy chain G103R (Fab, V domains shown)
VH: EVQLLESGGGLVQPGGSLRLSCAASGFTFSKYFMFWVRQAPGKGLEWVSVISPSGGMTRYADSVKGRFTISRDNSKNTLYLQMNSLRAEDTAVYYCARVGYGRNSDYWGQGTLVTVSS
VL: DIQMTQSPSSVSASVGDRLTIICRASQDINRWLAWYQQTPGNAPKLLIHSATSLQSGVPSRFSGSGSGTDFTLTINSLQPEDFATYYCQQADSFPLTFGGGTKVEIK
B3: XPA23 Fab, heavy chain G103E (Fab, V domains shown)
VH: EVQLLESGGGLVQPGGSLRLSCAASGFTFSKYFMFWVRQAPGKGLEWVSVISPSGGMTRYADSVKGRFTISRDNSKNTLYLQMNSLRAEDTAVYYCARVGYGENSDYWGQGTLVTVSS
VL: DIQMTQSPSSVSASVGDRLTIICRASQDINRWLAWYQQTPGNAPKLLIHSATSLQSGVPSRFSGSGSGTDFTLTINSLQPEDFATYYCQQADSFPLTFGGGTKVEIK
B4: XPA23 Fab, heavy chain G103D (Fab, V domains shown)
VH: EVQLLESGGGLVQPGGSLRLSCAASGFTFSKYFMFWVRQAPGKGLEWVSVISPSGGMTRYADSVKGRFTISRDNSKNTLYLQMNSLRAEDTAVYYCARVGYGDNSDYWGQGTLVTVSS
VL: DIQMTQSPSSVSASVGDRLTIICRASQDINRWLAWYQQTPGNAPKLLIHSATSLQSGVPSRFSGSGSGTDFTLTINSLQPEDFATYYCQQADSFPLTFGGGTKVEIK
B5: XPA23 Fab, heavy chain G103W (Fab, V domains shown)
VH: EVQLLESGGGLVQPGGSLRLSCAASGFTFSKYFMFWVRQAPGKGLEWVSVISPSGGMTRYADSVKGRFTISRDNSKNTLYLQMNSLRAEDTAVYYCARVGYGWNSDYWGQGTLVTVSS
VL: DIQMTQSPSSVSASVGDRLTIICRASQDINRWLAWYQQTPGNAPKLLIHSATSLQSGVPSRFSGSGSGTDFTLTINSLQPEDFATYYCQQADSFPLTFGGGTKVEIK
B6: XPA23 Fab, heavy chain G103Q (Fab, V domains shown)
VH: EVQLLESGGGLVQPGGSLRLSCAASGFTFSKYFMFWVRQAPGKGLEWVSVISPSGGMTRYADSVKGRFTISRDNSKNTLYLQMNSLRAEDTAVYYCARVGYGQNSDYWGQGTLVTVSS
VL: DIQMTQSPSSVSASVGDRLTIICRASQDINRWLAWYQQTPGNAPKLLIHSATSLQSGVPSRFSGSGSGTDFTLTINSLQPEDFATYYCQQADSFPLTFGGGTKVEIK
B7: XPA23 Fab, heavy chain G103K (Fab, V domains shown)
VH: EVQLLESGGGLVQPGGSLRLSCAASGFTFSKYFMFWVRQAPGKGLEWVSVISPSGGMTRYADSVKGRFTISRDNSKNTLYLQMNSLRAEDTAVYYCARVGYGKNSDYWGQGTLVTVSS
VL: DIQMTQSPSSVSASVGDRLTIICRASQDINRWLAWYQQTPGNAPKLLIHSATSLQSGVPSRFSGSGSGTDFTLTINSLQPEDFATYYCQQADSFPLTFGGGTKVEIK
B8: XPA23 Fab, heavy chain G103F (Fab, V domains shown)
VH: EVQLLESGGGLVQPGGSLRLSCAASGFTFSKYFMFWVRQAPGKGLEWVSVISPSGGMTRYADSVKGRFTISRDNSKNTLYLQMNSLRAEDTAVYYCARVGYGFNSDYWGQGTLVTVSS
VL: DIQMTQSPSSVSASVGDRLTIICRASQDINRWLAWYQQTPGNAPKLLIHSATSLQSGVPSRFSGSGSGTDFTLTINSLQPEDFATYYCQQADSFPLTFGGGTKVEIK

These binders were tested against T1, IL-1beta (UniProt P01584 117-269) (assay: Biacore).
T1 construct: also called IL-1β

Binding result, no binding:
B1
B2
B3
B4
B5
B6
B7
B8
